Assay results reported in PMC8461307 (2021).

Molecular target: purified C3b (UniProt P01024 23-667; P01024 749-1663)
Assay: SPR

Chain of purified C3b (P01024 23-667, chain 1 of 2): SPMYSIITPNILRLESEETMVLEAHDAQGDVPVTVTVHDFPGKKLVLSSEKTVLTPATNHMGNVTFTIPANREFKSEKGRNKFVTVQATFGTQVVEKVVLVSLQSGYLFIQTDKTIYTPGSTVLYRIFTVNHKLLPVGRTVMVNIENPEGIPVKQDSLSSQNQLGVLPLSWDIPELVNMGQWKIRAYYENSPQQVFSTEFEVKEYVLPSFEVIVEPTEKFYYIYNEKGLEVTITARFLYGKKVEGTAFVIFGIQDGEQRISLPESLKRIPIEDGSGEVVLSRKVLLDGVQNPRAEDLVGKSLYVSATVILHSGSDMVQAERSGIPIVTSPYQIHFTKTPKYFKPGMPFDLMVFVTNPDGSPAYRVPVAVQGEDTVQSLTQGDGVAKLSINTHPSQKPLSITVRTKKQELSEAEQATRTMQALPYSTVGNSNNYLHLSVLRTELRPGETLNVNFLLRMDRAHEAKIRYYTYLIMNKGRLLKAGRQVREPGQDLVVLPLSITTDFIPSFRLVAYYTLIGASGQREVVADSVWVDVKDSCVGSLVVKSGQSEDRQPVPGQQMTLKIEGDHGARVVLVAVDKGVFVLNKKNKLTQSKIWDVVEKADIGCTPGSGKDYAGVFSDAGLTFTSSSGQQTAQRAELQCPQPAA
Chain of purified C3b (P01024 749-1663, chain 2 of 2): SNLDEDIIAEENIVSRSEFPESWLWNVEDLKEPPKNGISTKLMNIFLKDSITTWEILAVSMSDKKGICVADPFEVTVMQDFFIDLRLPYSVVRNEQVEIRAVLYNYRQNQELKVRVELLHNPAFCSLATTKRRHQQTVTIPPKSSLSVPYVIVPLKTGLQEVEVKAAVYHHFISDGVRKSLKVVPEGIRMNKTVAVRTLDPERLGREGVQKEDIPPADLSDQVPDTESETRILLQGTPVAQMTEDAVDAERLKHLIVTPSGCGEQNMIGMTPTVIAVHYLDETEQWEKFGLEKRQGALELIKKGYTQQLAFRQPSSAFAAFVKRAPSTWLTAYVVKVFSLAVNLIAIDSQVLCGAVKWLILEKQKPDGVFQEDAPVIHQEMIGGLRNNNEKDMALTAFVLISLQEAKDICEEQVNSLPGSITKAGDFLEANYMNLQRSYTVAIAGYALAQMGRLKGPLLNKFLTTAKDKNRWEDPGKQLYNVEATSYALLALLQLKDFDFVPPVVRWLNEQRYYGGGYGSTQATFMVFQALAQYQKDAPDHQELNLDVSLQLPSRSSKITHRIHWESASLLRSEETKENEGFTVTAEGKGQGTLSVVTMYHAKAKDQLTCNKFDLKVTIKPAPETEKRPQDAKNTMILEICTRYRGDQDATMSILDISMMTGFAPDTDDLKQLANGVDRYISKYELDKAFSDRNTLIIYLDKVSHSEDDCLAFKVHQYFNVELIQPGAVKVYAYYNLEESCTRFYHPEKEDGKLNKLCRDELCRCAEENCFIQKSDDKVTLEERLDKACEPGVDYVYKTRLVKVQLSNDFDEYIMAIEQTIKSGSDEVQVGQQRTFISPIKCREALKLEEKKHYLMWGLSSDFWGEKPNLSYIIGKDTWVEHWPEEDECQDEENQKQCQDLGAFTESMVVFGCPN

koff: 0.141 s⁻¹
B1: recombinant wild-type Factor H-related protein 5 (FHR-5WT) (natural protein)
chain: EGTLCDFPKIHHGFLYDEEDYNPFSQVPTGEVFYYSCEYNFVSPSKSFWTRITCTEEGWSPTPKCLRMCSFPFVKNGHSESSGLIHLEGDTVQIICNTGYSLQNNEKNISCVERGWSTPPICSFTKGECHVPILEANVDAQPKKESYKVGDVLKFSCRKNLIRVGSDSVQCYQFGWSPNFPTCKGQVRSCGPPPQLSNGEVKEIRKEEYGHNEVVEYDCNPNFIINGPKKIQCVDGEWTTLPTCVEQVKTCGYIPELEYGYVQPSVPPYQHGVSVEVNCRNEYAMIGNNMITCINGIWTELPMCVATHQLKRCKIAGVNIKTLLKLSGKEFNHNSRIRYRCSDIFRYRHSVCINGKWNPEVDCTEKREQFCPPPPQIPNAQNMTTTVNYQDGEKVAVLCKENYLLPEAKEIVCKDGRWQSLPRCVESTAYCGPPPSINNGDTTSFPLSVYPPGSTVTYRCQSFYKLQGSVTVTCRNKQWSEPPRCLDPCVVSEENMNKNNIQLKWRNDGKLYAKTGDAVEFQCKFPHKAMISSPPFRAICQEGKFEYPICE
